Measured values published in patent publication US12551573B2, “Compositions and methods for the targeting of PCSK9” (Scribe Therapeutics Inc., priority 2022, dated 2026).
Where two headings read alike, the source gives them in different places.

B1: DOMAIN_26177 (protein, listed as Geotrypetes seraphini)
chain: ASAQVTFEDIAVSFCHEEWRYLDEGQKELYKEVMKENYETLISLGFLCEKPSLISKIEQEEDPCVRDQQNSRERRRRLKNF
B2: DOMAIN_25654 (protein)
chain: LWLPLTFEDIAIYFSEQEWQNLEAWQKDLYRNVMRANYEILVSLDDGLPKPELISHIEQGKELFWNLGETQKSGNIICSSA
modifications: Pteropus alecto
B3: DOMAIN_24838 (protein)
chain: FQASVSFKDVTVELTQEEWQQMGPLQRTLYRDVMLENYNNLVSVGSCIYKPELIFKLEQGEEPWLLEEEFSNQSYQVLEHY
modifications: Pteropus alecto
B4: DOMAIN_26044 (protein, listed as Geotrypetes seraphini)
chain: QMRLRFEDISVSFSQEEWAYLDEEQKELYREVMRDNYQTLISLGIGSPPVTPDIISCIEQGEEPYIRDEPGSEERKTGRSS
B5: DOMAIN_25996 (protein, listed as Geotrypetes seraphini)
chain: QMPVKFEDIAVSFSQEEWEYLNEEQKELYREVMEENYQTLISLGTGSPPITPDIISHIERGEEPYIREEPGSEERGPVRSS
B6: DOMAIN_23454 (protein, listed as Carlito syrichta)
chain: GKALLSFEDVAMYFTREEWNHLDWAQKDLYRDVMLENYMNMVLLGFQFPKPEVICQLENWDEPWILDLPRAGNRKASSSAC
B7: DOMAIN_22527 (protein, listed as Tursiops truncatus)
chain: VQASLSFEDVAVHFTWEEWQLLDPSQKDLYRNVMWENYCNLVSVGYQTPKPDSFFQLEQGEPPWTVEGAGQSQTCPGTRAS
B8: DOMAIN_26134 (protein, listed as Geotrypetes seraphini)
chain: AQVPVTFEDIAIYFSQEEWEYLDEGQKALYREVMKENYETLLLLGCPGLKPVIISSIEQGEEPCVRKLQERAELYPTAGDE
B9: DOMAIN_938 (protein, listed as Pan paniscus)
chain: MPANEDAPQPGEHGSACEVSVSFEDVTVDFSREEWQQLDSTQRRLYQDVMLENYSHLLSVGFEVPKPEVIFKLEQGEGPWT
B10: DOMAIN_23018 (protein, listed as Colobus angolensis)
chain: AQMLVTFKDVAVTFTQEEWRQLDLTQRTLYREVMLETCGLLVSLGHRVPKPELVHLLEHGQELWTVKTGLSQPTCAGDRTQ
B11: DOMAIN_25682 (protein, listed as Rhinopithecus bieti)
chain: PRLPLTFEDVAIYFSEQEWQDLEAWQKELYKHVMRSNYETLVSLDDGLPKPELISWIEHGGEPFRNWRESQKSRNIICSSS
B12: DOMAIN_22586 (protein)
chain: FQASVSFQDVTVEFSQEEWQHLGPVERTLYRDVMLENYSHLVSVGYCFTKPELIFTLEQGEDPWLLEKEKGFLSRNSPEDS
modifications: Nomascus leucogenys
B13: DOMAIN_26103 (protein, listed as Geotrypetes seraphini)
chain: EMRVMFEEITVSFSQEEWEYLDEGQKELYQEVMKENHETLIFLETNLQFVNPDMLSKIRRDSRMSRKRKATRSYAADDEAK
B14: DOMAIN_26131 (protein, listed as Geotrypetes seraphini)
chain: AQMPVKFEDIAVSFSQEEWEYLNEEQKELYREVMEENYQTLISLGSPPVTPDIISHIERGEEPYIREEPGSEEREPGRSSC
B15: DOMAIN_23093 (protein, listed as Propithecus coquereli)
chain: ESLTLEDVAVEFTWEEWQLLGPAQKDLYWDVMLENYNHLVSLGYQASKPDALSKLAQGEEPCVIEGKIQNRNCPGIRKADS
B16: DOMAIN_22919 (protein, listed as Colobus angolensis)
chain: KPGTVSFADVAVYFSREEWGYLRPAQRALYRDVMRETYCHLGALGVGGSKPALISWVEEEAELWDPAARDPEVTKGLTETD
B17: DOMAIN_22778 (protein, listed as Saimiri boliviensis)
chain: SQGSVSFKDVTVDFTQEEWQQLDPAQKALYRDVMLENYCHFIAVGFHMTKPDMIRKLEQGEELWTQRIFPSYSYLEEDGKT
B18: DOMAIN_24615 (protein, listed as Colobus angolensis)
chain: TEGLVMFEDVAVYFSREEWGLLNVTQKGLYQDVMLENFALVSSLGLAPLRSPVFSQLENDEQLWVPSWVDETPVSRAEARR
B19: DOMAIN_22917 (protein, listed as Cervus elaphus)
chain: MAFEDVAVHFSQEEWGLLDTAQRSLYRRVMLENFALLASLGLSVSRPHVVTQLERGEEPWVLSGVDVTLPRDAQRRPHRGS
B20: DOMAIN_23281 (protein, listed as Colobus angolensis)
chain: CWGLLSFKDISMEFTWDEWQLLDSTQKYLYRDVILENYHNLISVGYHGTKPDLIFKLEQGEDPWIINAKISRQSRPDGWEE
B21: DOMAIN_24903 (protein, listed as Ailuropoda melanoleuca)
chain: EMEPHSHAVPCQPSMSFKDVAVTFTQEEWGQLNLAQRRLYRNVTLETWSHLVSLGLLLSKPDVISWLEQGQDPWRAEQGPP
B22: DOMAIN_749 (protein, listed as Pan paniscus)
chain: MGPQGARRQAFLAFGDVTVDFTQKEWRLLSPAQRALYREVTLENYSHLVSLGILHSKPELIRRLEQGEAPWGEERRRRPGP
B23: DOMAIN_24204 (protein, listed as Propithecus coquereli)
chain: SLGSVSFKDVTVDFSREEWQQLDLAQKSLYRDVTLENYFNLISVGCQVPKPEVIFNLEQGGELCVLDGGLSCQNCSDGDIG
B24: DOMAIN_25565 (protein, listed as Muntiacus reevesi)
chain: LPLTFEDVAVYFSEQEWQNLEAWQKELYKQVMRANYEILLSLDNGLPKPELISWIEQGKELFKKWGESQQSRSIICSSADL
B25: DOMAIN_25973 (protein, listed as Geotrypetes seraphini)
chain: ARAPVSFEEVAVYFSPEEWQTLQGWQKEMYRGVMRENYEIMLSLGYQFSKPEILLMMERGEEPCVEDCQRRIPVTFREKHL
B26: DOMAIN_24446 (protein, listed as Propithecus coquereli)
chain: SQGLVSFKDVAVDFTQDEWQQLDPAQRTLYRDVMLENYSHLVSMGYPVSKPDVISKLEQGEDPWIIKRDISNWIYPDENQA
B27: DOMAIN_23679 (protein, listed as Tupaia chinensis)
chain: MAFEDVAVYFSREEWELLDTAQRALYRHVMLENFALVASLGFSPSRPCVVIQLESGKEPWLHSGMDTTMSRHAHKRPSSGS
B28: DOMAIN_23113 (protein, listed as Camelus ferus)
chain: GSVCEVSVSFEDVTVDFSREEWQHLDPAQRRLYWDVTLENYSHLCSVGYQVPKPEVIFKLEQGEGPWTLEEETPHQSCSGA
B29: DOMAIN_23331 (protein, listed as Carlito syrichta)
chain: LQELLSFEDLSVDFTQKEWQLLNPYQKNLYKDVMLENYSSLVSLGYEVIKPDVIFKLEQGEEPWIRDAEMPSSPSLEVWQV
B30: DOMAIN_26012 (protein, listed as Geotrypetes seraphini)
chain: QMQVKFEDIAISFSQEEWEYLNEEQKELYREVMEENYQTLLSLATDSPTFTPKIISYIKRGEEPYIRGEPDSEERESGKSS
B31: DOMAIN_731 (protein, listed as Pan paniscus)
chain: MAGEAEAQLDPSLQGLVMFEDVTVYFSREEWGLLNVTQKGLYRDVMLENFALVSSLGLAPSRSPVFTQLEDDEQSWVPSWV
B32: DOMAIN_22495 (protein, listed as Callorhinus ursinus)
chain: CEGLVSFEDVTMDFSREEWQQLDPAQRCLYWDVMLEIYSHLLSVGYHIPNPEIISRMEKGKKSWIRGAQLPHQRHREVVFG
B33: DOMAIN_25235 (protein, listed as Oryctolagus cuniculus)
chain: LPGLMAFEDVAVYFSQEEWGLLDAVQRALYRHVMLENFALVASLGLSASPPHVVIQLQRGEEPWVPSGLDMTSARNGHRRP
B34: DOMAIN_25686 (protein, listed as Panthera pardus)
chain: PRVSLTFEDVAVLFTRDEWRKLGPSERNLYQDVMLENYSNLVSLGLLFSKPKVISLLQQGEDPWKVEKESPGGPSLGYKSS
B35: DOMAIN_25671 (protein, listed as Muntiacus reevesi)
chain: GLLSFEDVALYFTREEWDTLDWAQKALYRDVMLDNYRHIVSLGFPFPKPEVICQLEQWEEPWTLDLPRAGTRKASGSACPD
B36: DOMAIN_23856 (protein, listed as Erinaceus europaeus)
chain: SLGMVSFDDVMVTFSLEEWQLLSTSQRTLYRTVMLDTYSSLAALGHCAVKPGVIIKLEQGAEPWMGAQAPPRSLSDPCGPS

Tested on: HBEGF locus
Format: cell-based, human
Settings: high-throughput screen of dXR repression of the HBEGF gene
[1] = abundance of each domain in the library before vs after diphtheria toxin selection, listed domains met p-value <0.01 and log2(fold change) >2
[2] = change in abundance of each domain in the library before and after diphtheria toxin selection

Molecule | Log2 (fold change) [1] | Log2 (fold change) [2]
B1 | 3.4467 | 
B2 | 2.2996 | 
B3 | 2.3323 | 
B4 | 2.8874 | 
B5 | 3.984 | 
B6 | 3.0632 | 
B7 | 2.989 | 
B8 | 2.4433 | 
B9 |  | 2.2926
B10 | 3.4177 | 
B11 | 2.5621 | 
B12 | 2.1811 | 
B13 | 2.5308 | 
B14 | 2.4087 | 
B15 | 3.2165 | 
B16 | 2.8609 | 
B17 | 3.1251 | 
B18 | 2.4075 | 

Molecule | Log2 (fold change) [1] | Log2 (fold change) [2]
B19 | 3.8061 | 
B20 | 2.5048 | 
B21 | 3.0377 | 
B22 |  | 3.1162
B23 | 3.0779 | 
B24 | 2.6133 | 
B25 | 2.7804 | 
B26 | 3.6312 | 
B27 | 3.7951 | 
B28 | 3.4612 | 
B29 | 2.8995 | 
B30 | 2.3532 | 
B31 |  | 2.1318
B32 | 2.2623 | 
B33 | 3.6965 | 
B34 | 2.8635 | 
B35 | 3.5244 | 
B36 | 3.1072 | 
